Columns and labels:
[1] = target: T1, Met-SK (recombinant SK purified from E. coli)
T1 chain: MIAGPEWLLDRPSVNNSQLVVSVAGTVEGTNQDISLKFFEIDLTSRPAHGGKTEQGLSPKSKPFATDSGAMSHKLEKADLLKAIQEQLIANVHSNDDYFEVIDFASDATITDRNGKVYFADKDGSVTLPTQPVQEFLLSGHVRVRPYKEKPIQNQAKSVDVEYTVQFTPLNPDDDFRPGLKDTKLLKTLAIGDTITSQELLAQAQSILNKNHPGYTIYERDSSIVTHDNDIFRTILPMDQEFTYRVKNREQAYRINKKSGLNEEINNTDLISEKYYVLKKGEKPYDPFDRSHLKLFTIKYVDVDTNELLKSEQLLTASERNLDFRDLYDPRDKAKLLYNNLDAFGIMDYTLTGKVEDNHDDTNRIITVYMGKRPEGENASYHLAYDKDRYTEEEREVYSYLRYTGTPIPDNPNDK

[2] = target: SK-FBD(4,5) chimeric protein, SK[residues 1-383]-(gly-gly-gly)-[FBD(4,5)]
[3] = target: FBD(4,5)-SK-FBD(4,5) chimeric protein
[4] = target: T2, SK-FBD(1,2) chimeric protein
T2 chain: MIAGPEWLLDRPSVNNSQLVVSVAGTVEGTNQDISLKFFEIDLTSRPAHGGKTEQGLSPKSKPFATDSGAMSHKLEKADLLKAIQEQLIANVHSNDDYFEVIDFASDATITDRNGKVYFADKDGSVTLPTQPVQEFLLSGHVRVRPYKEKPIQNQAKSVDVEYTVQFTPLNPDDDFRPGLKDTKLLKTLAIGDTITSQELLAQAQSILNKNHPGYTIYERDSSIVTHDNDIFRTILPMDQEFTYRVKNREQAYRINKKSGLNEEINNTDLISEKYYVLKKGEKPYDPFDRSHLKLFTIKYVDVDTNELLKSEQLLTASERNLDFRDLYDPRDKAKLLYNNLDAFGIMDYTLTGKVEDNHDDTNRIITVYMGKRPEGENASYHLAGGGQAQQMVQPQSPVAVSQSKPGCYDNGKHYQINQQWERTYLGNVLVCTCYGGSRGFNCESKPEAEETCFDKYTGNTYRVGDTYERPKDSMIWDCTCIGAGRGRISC

[5] = target: T3, native SK from Streptococcus sp. (ATCC 12449)
T3 chain: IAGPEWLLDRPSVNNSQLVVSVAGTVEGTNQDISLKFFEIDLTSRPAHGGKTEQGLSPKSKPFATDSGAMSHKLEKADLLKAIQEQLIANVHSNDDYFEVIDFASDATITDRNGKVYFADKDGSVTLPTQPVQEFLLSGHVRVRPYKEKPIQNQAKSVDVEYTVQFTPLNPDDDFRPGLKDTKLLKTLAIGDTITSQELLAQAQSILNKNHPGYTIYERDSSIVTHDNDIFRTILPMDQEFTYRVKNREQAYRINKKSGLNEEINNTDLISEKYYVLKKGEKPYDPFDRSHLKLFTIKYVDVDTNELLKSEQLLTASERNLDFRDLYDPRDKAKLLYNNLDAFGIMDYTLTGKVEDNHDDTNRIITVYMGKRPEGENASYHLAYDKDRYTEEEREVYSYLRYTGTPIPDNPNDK

[6] = target: FBD(4,5)-SK chimeric protein

B1: human plasminogen (protein)
chain: EPLDDYVNTQGASLFSVTKKQLGAGSIEECAAKCEEDEEFTCRAFQYHSKEQQCVIMAENRKSSIIIRMRDVVLFEKKVYLSECKTGNGKNYRGTMSKTKNGITCQKWSSTSPHRPRFSPATHPSEGLEENYCRNPDNDPQGPWCYTTDPEKRYDYCDILECEEECMHCSGENYDGKISKTMSGLECQAWDSQSPHAHGYIPSKFPNKNLKKNYCRNPDRELRPWCFTTDPNKRWELCDIPRCTTPPPSSGPTYQCLKGTGENYRGNVAVTVSGHTCQHWSAQTPHTHNRTPENFPCKNLDENYCRNPDGKRAPWCHTTNSQVRWEYCKIPSCDSSPVSTEQLAPTAPPELTPVVQDCYHGDGQSYRGTSSTTTTGKKCQSWSSMTPHRHQKTPENYPNAGLTMNYCRNPDADKGPWCFTTDPSVRWEYCNLKKCSGTEASVVAPPPVVLLPDVETPSEEDCMFGNGKGYRGKRATTVTGTPCQDWAAQEPHRHSIFTPETNPRAGLEKNYCRNPDGDVGGPWCYTTNPRKLYDYCDVPQCAAPSFDCGKPQVEPKKCPGRVVGGCVAHPHSWPWQVSLRTRFGMHFCGGTLISPEWVLTAAHCLEKSPRPSSYKVILGAHQEVNLEPHVQEIEVSRLFLEPTRKDIALLKLSSPAVITDKVIPACLPSPNYVVADRTECFITGWGETQGTFGAGLLKEAQLPVIENKVCNRYEFLNGRVQSTELCAGHLAGGTDSCQGDSGGPLVCFEKDKYILQGVTSWGLGCARPNKPGVYVRVSRFVTWIEGVMRNN
For B1, the Kplg (Km for HPG), steady-state HPG activation, chromogenic one-stage assay [1] was 0.18 µM, the Kplg (Km for HPG), steady-state HPG activation, chromogenic one-stage assay, linear phase after the lag [2] was 0.15 µM and the Kplg (Km for HPG), steady-state HPG activation, chromogenic one-stage assay, linear phase after the lag [3] was 0.2 µM. For the same protein, the Kplg (Km for HPG), steady-state HPG activation, chromogenic one-stage assay, linear phase after the lag [4] was 0.18 µM, the Kplg (Km for HPG), steady-state HPG activation, chromogenic one-stage assay [5] was 0.14 µM and the Kplg (Km for HPG), steady-state HPG activation, chromogenic one-stage assay, linear phase after the lag [6] was 0.16 µM.
